According to article PMC8213733, “Subtype-specific collaborative transcription factor networks are promoted by OCT4 in the progression of prostate cancer” (Nature Communications, 2021):

Molecular target: T1, Flag-AR (human (cDNA of PC cells, said of the …, UniProt P10275 1-920))
T1 construct: androgen receptor, full length in Flag-tagged pcDNA3.0; also called androgen receptor; source: 293T, transfected, cells treated with 10 nM DHT or vehicle, purified (Flag M2 agarose beads, glycine elution)
T1 sequence (looked up): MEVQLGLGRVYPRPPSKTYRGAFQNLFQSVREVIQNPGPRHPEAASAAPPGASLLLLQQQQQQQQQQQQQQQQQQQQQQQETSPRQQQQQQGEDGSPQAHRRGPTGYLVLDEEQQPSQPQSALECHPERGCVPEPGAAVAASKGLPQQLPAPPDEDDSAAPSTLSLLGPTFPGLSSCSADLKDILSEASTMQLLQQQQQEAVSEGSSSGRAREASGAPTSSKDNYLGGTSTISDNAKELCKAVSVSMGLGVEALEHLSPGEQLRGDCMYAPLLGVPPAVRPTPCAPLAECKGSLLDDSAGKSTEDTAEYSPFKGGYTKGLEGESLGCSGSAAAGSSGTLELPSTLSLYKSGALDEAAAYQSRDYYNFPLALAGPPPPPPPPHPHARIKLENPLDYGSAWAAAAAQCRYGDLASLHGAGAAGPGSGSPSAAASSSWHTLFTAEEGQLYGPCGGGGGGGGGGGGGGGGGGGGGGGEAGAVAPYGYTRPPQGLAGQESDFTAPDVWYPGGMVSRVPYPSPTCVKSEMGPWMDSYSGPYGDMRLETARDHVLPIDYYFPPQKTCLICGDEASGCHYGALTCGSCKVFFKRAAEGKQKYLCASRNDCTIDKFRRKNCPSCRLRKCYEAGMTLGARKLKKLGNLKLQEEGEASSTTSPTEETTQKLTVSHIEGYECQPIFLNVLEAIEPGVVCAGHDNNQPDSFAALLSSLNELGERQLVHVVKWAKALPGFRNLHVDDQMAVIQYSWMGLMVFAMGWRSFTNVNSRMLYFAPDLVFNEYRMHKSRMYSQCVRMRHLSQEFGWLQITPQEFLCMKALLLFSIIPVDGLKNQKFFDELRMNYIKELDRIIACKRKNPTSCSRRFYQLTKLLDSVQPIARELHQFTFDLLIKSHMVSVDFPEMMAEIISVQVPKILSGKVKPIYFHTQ
Test: co-IP; in vitro binding assay: purified proteins in 20 mM Tris-HCl pH 7.5, 150 mM NaCl, 0.1% Triton X-100, 1 mM DTT, 4 °C, 5 h; FOXA1 immunoprecipitated, bound proteins by western blot; with or without ribavirin-phosphate
Details: both partners purified

B1: Flag-FOXA1 (natural protein, UniProt P55317 1-472, looked up)
chain: MLGTVKMEGHETSDWNSYYADTQEAYSSVPVSNMNSGLGSMNSMNTYMTMNTMTTSGNMTPASFNMSYANPGLGAGLSPGAVAGMPGGSAGAMNSMTAAGVTAMGTALSPSGMGAMGAQQAASMNGLGPYAAAMNPCMSPMAYAPSNLGRSRAGGGGDAKTFKRSYPHAKPPYSYISLITMAIQQAPSKMLTLSEIYQWIMDLFPYYRQNQQRWQNSIRHSLSFNDCFVKVARSPDKPGKGSYWTLHPDSGNMFENGCYLRRQKRFKCEKQPGAGGGGGSGSGGSGAKGGPESRKDPSGASNPSADSPLHRGVHGKTGQLEGAPAPGPAASPQTLDHSGATATGGASELKTPASSTAPPISSGPGALASVPASHPAHGLAPHESQLHLKGDPHYSFNHPFSINNLMSSSEQQHKLDFKAYEQALQYSPYGSTLPASLPLGSASVTTRSPIEPSALEPAYYQGVYSRPVLNTS
notes: FOXA1, full length in Flag-tagged pcDNA3.0; source: 293T, transfected, purified (Flag M2 agarose beads, glycine elution)
binding result: binds
